Publication PMC4083873, “Expression and characterization of a β-fructofuranosidase from the parasitic protist Trichomonas vaginalis” (BMC Biochemistry, 2014)

What was measured:
[1] = substrate: OC[C@H]1O[C@H](OC[C@H]2O[C@H](O[C@]3(CO)O[C@H](CO)[C@@H](O)[C@@H]3O)[C@H](O)[C@@H](O)[C@@H]2O)[C@H](O)[C@@H](O)[C@H]1O; assay: coupled hexokinase / glucose-6-phosphate dehydrogenase / phosphoglucose isomerase assay of released fructose; Michaelis-Menten fit; type: biochemical, Trichomonas vaginalis; conditions: 20 mM sodium acetate, pH 5.0, 30 °C, ~27 nM enzyme
Source text: coupled hexokinase / glucose-6-phosphate dehydrogenase / phosphoglucose isomerase assay of released fructose; Michaelis-Menten fit on T. vaginalis β-fructofuranosidase

[2] = substrate: OC[C@H]1O[C@@](CO)(O[C@H]2O[C@H](CO)[C@@H](O)[C@H](O)[C@H]2O)[C@@H](O)[C@@H]1O; assay: coupled hexokinase / glucose-6-phosphate dehydrogenase assay of released glucose; Michaelis-Menten fit; type: biochemical, Trichomonas vaginalis; conditions: 20 mM sodium acetate, pH 5.0, 30 °C, ~27 nM enzyme
Source text: coupled hexokinase / glucose-6-phosphate dehydrogenase assay of released glucose; Michaelis-Menten fit on T. vaginalis β-fructofuranosidase

B1: T. vaginalis β-fructofuranosidase (Trichomonas vaginalis G3) (protein)
chain: MNFSSRLKFHFEPLKGWMNDPNGLIQFKGEYHAFFQHYPFDTKWGPMHWGHATSKDLIHWEHKPIALYPDQEYENNGGCFSGSAIEFNDKLHIFYTGVGKSNGQSQCHAVMQDENRFIKDPKNPIIKSPPIEYGINDFRDPKVVKIENTFYMVVGTGKDGIGRVLLYKSSNLENWTFLNLLVEGKEYGQCCECPDLIQIDNQFFLMFSQMTGQGIGTLFFHLKYENGTFTVDKKLNQPIIGPDFYAPQTFHDDKGRRIIIGWLYNWKRVPPKEVDYAGAFTIPCELKYKEGKIVVNPIDEISHELKSESKFVEIQENKLIINGKPSVIHEGKIENIKILEDVKTIEVWINNGEFYYSTWLF
notes: E. coli BL21(DE3); IMAC; calculated 44 kDa
[1]
  Km: 5.5 ± 0.9 mM
  Vmax: 368 µmol/min/mg
  kcat: 270 ± 12 s⁻¹
[2]
  Km: 20.6 ± 2.2 mM
  Vmax: 1580 µmol/min/mg
  kcat: 1160 ± 36 s⁻¹
